Experimental data published in US11306156.

Key:
[1] = target: D3H44 Fab heavy chain L124R_S186R, C-terminal ABD2-His6 tag; assay: LCCA (co-expression, SPR read-out of light chain tags), L1:L2 DNA 1:3 normalised to 1:1; competitor m8
[2] = target: D3H44 Fab heavy chain L124R_S186K, C-terminal ABD2-His6 tag; assay: as above
[3] = target: D3H44 Fab heavy chain L124E_L143E_K145T, C-terminal ABD2-His6 tag; assay: as above
[4] = target: D3H44 Fab heavy chain L124R_S186R, C-terminal ABD2-His6 tag; assay: LCCA co-expression, SPR tag read-out; DNA 1:3 norm. to 1:1; competing light chain m8
[5] = target: D3H44 Fab heavy chain L124R_Q179K, C-terminal ABD2-His6 tag; assay: as above
[6] = target: D3H44 Fab heavy chain L124E_L143E_K145T, C-terminal ABD2-His6 tag; assay: as above
[7] = target: D3H44 Fab heavy chain L124R_Q179K, C-terminal ABD2-His6 tag; assay: LCCA co-expression, SPR tag read-out; DNA 1:3 norm. to 1:1; competing light chain m7
[8] = target: D3H44 Fab heavy chain L124E_L143E_K145T, C-terminal ABD2-His6 tag; assay: as above
[9] = target: D3H44 Fab heavy chain L124E_L143D_K145M, C-terminal ABD2-His6 tag; assay: LCCA set 9202 (co-expression; SPR read-out of light-chain tags; L1:L2 DNA 1:3, normalized to 1:1); competing light chain m13
[10] = target: D3H44 Fab heavy chain L124R_S186R, C-terminal ABD2-His6 tag; assay: LCCA set 9544 (co-expression; SPR read-out of light-chain tags; L1:L2 DNA 1:3, normalized to 1:1); competing light chain m13
[11] = target: D3H44 Fab heavy chain L124E_L143E_K145T, C-terminal ABD2-His6 tag; assay: LCCA set 9320 (co-expression; SPR read-out of light-chain tags; L1:L2 DNA 1:3, normalized to 1:1); competing light chain m9
[12] = target: D3H44 Fab heavy chain L124E_L143D_K145T, C-terminal ABD2-His6 tag; assay: LCCA set 9240 (co-expression; SPR read-out of light-chain tags; L1:L2 DNA 1:3, normalized to 1:1); competing light chain m13
[13] = target: D3H44 Fab heavy chain L124R_S186K, C-terminal ABD2-His6 tag; assay: LCCA set 9488 (co-expression; SPR read-out of light-chain tags; L1:L2 DNA 1:3, normalized to 1:1); competing light chain m9

H2L2:H2L1 normalized median ratio [1]: 94%
H2L2:H2L1 normalized median ratio [2]: 93%
H1L1:H1L2 normalized median ratio [3]: 13%
H2L2:H2L1 normalized median ratio (% (ratio normalized to 100)) [4]: 91
H2L2:H2L1 normalized median ratio (% (ratio normalized to 100)) [5]: 90
H1L1:H1L2 normalized median ratio (% (ratio normalized to 100)) [6]: 5
H2L2:H2L1 normalized median ratio (% (ratio normalized to 100)) [7]: 90
H1L1:H1L2 normalized median ratio (% (ratio normalized to 100)) [8]: 6
H1L1:H1L2 normalized median ratio (H1L2 part) [9]: 16%
H2L2:H2L1 normalized median ratio (H2L2 part) [10]: 92%
H1L1:H1L2 normalized median ratio (H1L2 part) [11]: 14%
H1L1:H1L2 normalized median ratio (H1L2 part) [12]: 13%
H2L2:H2L1 normalized median ratio (H2L2 part) [13]: 91%
Substance: D3H44 light chain V133G_S176D_T178E_T180E, N-terminal HA or FLAG tag
